T1: Rv0023 (XRE family transcription regulator) (Mycobacterium tuberculosis, UniProt P9WMI3 1-256)
T1 sequence: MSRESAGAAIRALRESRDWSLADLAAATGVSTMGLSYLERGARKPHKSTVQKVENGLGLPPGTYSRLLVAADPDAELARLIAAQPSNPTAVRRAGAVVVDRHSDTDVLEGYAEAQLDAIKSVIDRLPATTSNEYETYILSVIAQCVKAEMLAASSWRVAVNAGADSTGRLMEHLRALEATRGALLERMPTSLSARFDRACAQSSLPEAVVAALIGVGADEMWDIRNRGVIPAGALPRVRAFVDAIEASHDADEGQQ

B1: OL3M (dsDNA)
DNA 1: AGAGCCCGCCACAGACAGAGACGCGTGTGCCTATGTTTCG
DNA 2: CGAAACATAGGCACACGCGTCTCTGTCTGTGGCGGGCTCT
B2: OL1M (dsDNA)
DNA 1: CACCCCTTATGTAGAGACGTGTGTATCGCGATTCTCTTGC
DNA 2: GCAAGAGAATCGCGATACACACGTCTCTACATAAGGGGTG

Target: T1, Rv0023 (XRE family transcription …)
Experiment: EMSA; 8 pmol protein
Conditions: protein: recombinant; tags: His (implied by Ni-NTA purification; pET23a, also printed pET21b); chain copies: 2; label: 32P; blunt

Binder	binding result
B1	no binding
B2	no binding

— PMC7020754
